Residue numbers refer to the chain shown, from its start.
T1: GABPα-GST (ETS domain) (UniProt Q00422 320-400)
T1 sequence: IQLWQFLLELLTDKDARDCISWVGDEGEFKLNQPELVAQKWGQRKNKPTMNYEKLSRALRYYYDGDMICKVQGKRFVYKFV

T2: GABPα-GST (ETS domain);CREB1 B-ZIP domain (mouse?;mouse, UniProt Q00422;Q01147 320-400;269-327, |)
T2 sequence 1: T1 sequence
T2 sequence 2: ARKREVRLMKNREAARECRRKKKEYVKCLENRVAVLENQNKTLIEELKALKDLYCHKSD

B1: ETS-CRE GC motif probe (dsDNA)
DNA 1: GTCCTCAAGAGCGGAAGTGACGTCACGACTCAGGTGGGACACACTTTAACACATGGAGAG
DNA 2: CTCTCCATGTGTTAAAGTGTGTCCCACCTGAGTCGTGACGTCACTTCCGCTCTTGAGGAC
B2: CC SNP CCGGAAA(T) (dsDNA)
DNA 1: B1 DNA 1 with G11C, G17A
DNA 2: B1 DNA 2 with C44T, C50G
B3: CC SNP CGGGAAGT (dsDNA)
DNA 1: B1 DNA 1 with G11C, C12G
DNA 2: B1 DNA 2 with G49C, C50G
B4: CC SNP CCGGACGT (dsDNA)
DNA 1: B1 DNA 1 with G11C, A16C
DNA 2: B1 DNA 2 with T45G, C50G
B5: CC SNP TCGGAAGT (dsDNA)
DNA 1: B1 DNA 1 with G11T
DNA 2: B1 DNA 2 with C50A
B6: CC SNP CCGGAACT (dsDNA)
DNA 1: B1 DNA 1 with G11C, G17C
DNA 2: B1 DNA 2 with C44G, C50G
B7: GC SNP GCGGAACT (dsDNA)
DNA 1: B1 DNA 1 with G17C
DNA 2: B1 DNA 2 with C44G
B8: GC SNP GCGGAAA(T) (dsDNA)
DNA 1: B1 DNA 1 with G17A
DNA 2: B1 DNA 2 with C44T
B9: GC SNP GGGGAAGT (dsDNA)
DNA 1: B1 DNA 1 with C12G
DNA 2: B1 DNA 2 with G49C

What follows are binders tested against T1, GABPα-GST (ETS domain) (assay: PBM; GABPα-GST alone; PBM as in Badis et al. 2009 (buffer, salt, pH, temperature not stated); IVT proteins from 2.5-100 ng plasmid; Alexa Fluor 647 anti-GST detection). Settings: protein: ivt; tags: GST; blunt.

Binder | binding signal [fold weaker than N1]
B1 | 4

What follows are binders tested against T2, GABPα-GST (ETS domain);CREB1 B-ZIP … (assay: PBM; 8 ng:8 ng plasmid; PBM as in Badis et al. 2009 (buffer, salt, pH, temperature not stated); IVT proteins from 2.5-100 ng plasmid; Alexa Fluor 647 anti-GST detection). Settings: protein: ivt;ivt; tags: GST;none; copies: 1;2; blunt.

Binder | binding signal
B2 | 2 fold increase by CREB1
B3 | ~16 fold increase by CREB1
B4 | < 20 fold increase by CREB1 (up to; abstract up to 23, most enhanced SNP)
B5 | < 20 fold increase by CREB1 (up to)
B6 | 20 fold increase by CREB1

Biological target: T2, GABPα-GST (ETS domain);CREB1 B-ZIP …
Assay: as above
Settings: protein: ivt;ivt; tags: GST;none; copies: 1;2; blunt
Remark: another data set of the same source

Binder | binding signal [fold increase by CREB1]
B7 | 8
B8 | 16
B9 | ~8

Source: publication PMC4555227, “GABPα Binding to Overlapping ETS and CRE DNA Motifs Is Enhanced by CREB1: Custom DNA Microarrays”
